Data on two molecules can be found in patent US20240002504A1 (AKESO BIOPHARMA, published 2024).

In assay [1] the target is T1, human TIGIT-mFc (human, UniProt Q495A1 22-141, limits assumed).
T1 construct: the whole entry NP_776160.2 is named; also called antigen TIGIT-mFc; not shown: Fc protein fragment of a mouse IgG (mFc)
T1 sequence (looked up): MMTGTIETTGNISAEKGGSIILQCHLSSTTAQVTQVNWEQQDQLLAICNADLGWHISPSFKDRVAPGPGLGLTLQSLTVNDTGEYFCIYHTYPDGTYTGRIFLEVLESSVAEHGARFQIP
Description: indirect ELISA screening with human TIGIT-mFc as antigen. For orientation: An ELISA detects its analyte on a solid surface through an enzyme-linked reagent.

Assay [2] addresses T2, 293T-TIGIT cell membrane surface antigen TIGIT (human, UniProt Q495A1 22-244).
T2 construct: whole, on cells; also called cell membrane surface TIGIT
T2 sequence (looked up): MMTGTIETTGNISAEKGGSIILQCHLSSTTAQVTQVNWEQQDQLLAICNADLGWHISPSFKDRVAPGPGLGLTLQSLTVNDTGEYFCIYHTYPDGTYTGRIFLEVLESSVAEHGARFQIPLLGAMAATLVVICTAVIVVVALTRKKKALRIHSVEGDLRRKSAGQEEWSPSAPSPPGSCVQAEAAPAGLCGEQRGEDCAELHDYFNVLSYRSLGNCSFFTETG
Description: FACS on 293T-TIGIT cells. The protocol: The cells were diluted, 300 thousand cells were added to each well of a transparent V-bottomed 96-well plate, and 200 μL of 1% PBSA was added to each tube. The mixtures were centrifuged for 5 min, and the supernatants were discarded. […] The mixtures were centrifuged for 5 min, and the supernatants were discarded. The plate was washed twice. […] 200 μL of PBSA was added to each tube. The mixtures were centrifuged for 5 min, and the supernatants were discarded. The cells were resuspended by adding 200 μL of PBSA, and the suspensions were transferred into flow cytometry tubes to measure the mean fluorescence intensity of the cells at each concentration by a flow cytometer.

Assay [3] deals with T1, human TIGIT-mFc. Briefly: ELISA, TIGIT-mFc captured on goat anti-mouse IgG Fc. The protocol:
(§1) Experimental steps: a microplate was coated with goat anti-mouse IgG Fc at 2 μg/mL, and incubated at 4° C. for 16 h. After incubation, the microplate coated with goat anti-mouse IgG Fc was washed once with PBST, and then blocked with a PBST solution containing 1% BSA as a microplate blocking solution for 2 h. After blocking, the microplate was washed 3 times with PBST. Then, 1 μg/mL antigen human TIGIT-mFc was added, and the plate was incubated at 37° C. for 30 min and then washed 3 times with PBST. The antibodies serially diluted with the PBST solution were added to the wells of the microplate. The microplate containing the test antibodies was incubated at 37° C. for 30 min, and then washed 3 times with PBST. After washing, HRP-labeled goat anti-human IgG Fc secondary antibody working solution diluted in a ratio of 1:5000 was added, and the microplate was incubated at 37° C. for 30 min. After incubation, the plate was washed 4 times with PBST, TMB (Neogen, 308177) was added for chromogenesis in the dark for 4 min, and then a stop solution was added to terminate the chromogenic reaction. The microplate was put into a microplate reader immediately, and the OD value of each well in the microplate was read at 450 nm. The data were analyzed and processed by SoftMax Pro 6.2.1.

Assay [4] concerns the target T2, 293T-TIGIT cell membrane surface …. Description: FACS competition vs CD155 (10 nM) on 293T-TIGIT cells. The protocol:
(§2) The cells were diluted, 300 thousand cells were added to each well of a transparent V-bottomed 96-well plate, and 200 μL of 1% PBSA was added to each tube. The mixtures were centrifuged for 5 min, and the supernatants were discarded. […] The plate was incubated on ice for 30 min. […] 200 μL of 1% PBSA was then added to each tube. The mixtures were centrifuged for 5 […], and the supernatants were discarded. The plate was washed twice. APC goat anti-mouse IgG (minimal x-reactivity) antibody (diluted 300-fold with PBSA) was added to each sample, and the mixtures were incubated on ice in the dark for 40 min. 200 μL of PBSA was added to each tube. The mixtures were centrifuged for 5 min, and the supernatants were discarded. The cells were resuspended by adding 200 μL of PBSA, and the suspensions were transferred into flow cytometry tubes to measure the mean fluorescence intensity of the cells at each concentration by a flow cytometer.

The target is the same in assay [5]. Briefly: FACS competition vs CD112 (30 nM) on 293T-TIGIT cells. The procedure: as §2
For assay [6], the target named is T1, human TIGIT-mFc. Description: competition ELISA vs CD155-hFc-Biotin (1 ug/mL), coated TIGIT-mFc. The procedure: (§3) Experimental steps: a microplate was coated with TIGIT-mFc at 2 μg/mL, and incubated at 4° C. overnight. After incubation, the antigen-coated microplate was rinsed once with PBST, and then blocked with a PBST solution containing 1% BSA as a microplate blocking solution for 2 h. After blocking, the microplate was washed 3 times with PBST. The antibodies serially diluted with the PBST solution was added to the microplate. […] The microplate was incubated at 37° C. for 30 min, and then washed 3 times with PBST. After washing, SA-HRP working solution diluted in a ratio of 1:4000 was added, and the microplate was incubated at 37° C. for 30 min. After incubation, the plate was washed 4 times with PBST, TMB (Neogen, 308177) was added for chromogenesis in the dark for 5 min, and then a stop solution was added to terminate the chromogenic reaction. The microplate was put into a microplate reader immediately, and the OD value of each well in the microplate was read at 450 nm. The data were analyzed and processed by SoftMax Pro 6.2.1.

Assay [7] concerns the target T1, human TIGIT-mFc. Briefly: BLI (Fortebio), TIGIT-mFc on AMC sensor, Ab 0.06-5 nM, 37 C, 1:1 fit. The protocol: The sample dilution buffer was PBS (0.02% Tween-20, 0.1% BSA, pH 7.4). TIGIT-mFc was immobilized on an AMC sensor at a concentration of 3 μg/mL for 50 s, and the sensor was equilibrated in the buffer for 60 s. The TIGIT-mFc immobilized on the sensor was allowed to bind to antibody at concentrations of 0.06-5 nM (three-fold dilutions) for 120 s, and the protein was dissociated in the buffer for 300 s. The sensor was regenerated with 10 mM glycine solution (pH=1.7). The detection temperature was 37° C., the detection frequency was 0.3 Hz, and the sample plate shaking rate was 1000 rpm. The data were analyzed by 1:1 model fitting to obtain affinity constants.
On the technique in general: Biolayer interferometry detects binding as a change in optical thickness at a sensor tip.

For assay [8], the target named is T1, human TIGIT-mFc. Briefly: competition ELISA vs CD155-hFc-Biotin (1 ug/mL), coated TIGIT-mFc. The procedure:
as §3
This is another data set of the same source.

Assay [9] addresses T1, human TIGIT-mFc. Description: ELISA, TIGIT-mFc captured on goat anti-mouse IgG Fc. The protocol: as §1
The source holds these as a separate data set.

B1: 26B12 (antibody, V domains shown)
VH: EVQLQESGPGLVKPSQSLSLTCTVTGHSFTSDYAWNWIRQFPGNRLEWMGYISYSDSTNYNPSLKSRISITRDTSKNQFFLQMNSVTTEDTATYYCARLDYGNYGGAMDYWGQGTSVTVSS
VL: DIVLTQSHEFMSTSLRDRVSITCKSSQHVSTAVAWYQQKPGQSPKLLIYSASYRYTGVPDRFTGSGSGTDFTFTISSVKAEDLAVYYCQQHYITPWTFGGGTKLEIK
notes: Murine hybridoma antibody; also called monoclonal antibody secreted by hybridoma cell line LT019
With B1, the binding result with human TIGIT-mFc [1] was “binds”.

B2: RG6058 (antibody, V domains shown)
VH: EVQLQQSGPGLVKPSQTLSLTCAISGDSVSSNSAAWNWIRQSPSRGLEWLGKTYYRFKWYSDYAVSVKGRITINPDTSKNQFSLQLNSVTPEDTAVFYCTRESTTYDLLAGPFDYWGQGTLVTVSS
VL: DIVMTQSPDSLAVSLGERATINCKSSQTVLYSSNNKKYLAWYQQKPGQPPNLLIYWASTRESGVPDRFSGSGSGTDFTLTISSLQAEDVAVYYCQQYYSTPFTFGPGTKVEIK
In general, EC50 refers to the concentration that produces a half-maximal response. High values mean a need for much substance, low ones an effect from little substance. One may read the Kd as the concentration at which binding is half-saturated. A word on the koff: it is the rate constant with which the complex falls apart. A high value points to a short-lived complex. Broadly, the kon is a measure of how fast the partners come together. Turning to B2, the concentration giving a half-maximal response (EC50) in assay [2] amounted to 1260 pM; with human TIGIT-mFc [3] it was 39 pM; in [4], 1210 pM; in [5], 1220 pM; with human TIGIT-mFc [6], 236 pM; with human TIGIT-mFc [8] it was 254 pM. The response with human TIGIT-mFc [9] was half-maximal at 36 pM (EC50). Further, in the assay with human TIGIT-mFc [7], the Kd is 31.6 pM. The “Maximum signal height of analyte” value with human TIGIT-mFc [7] came out at 0.16 nm. For the same molecule, the “S E (kdis)” value with human TIGIT-mFc [7] amounted to 3.46e-05 s⁻¹. The “S E (kon)” value in the assay with human TIGIT-mFc [7] was determined as 184000 M⁻¹ s⁻¹. This molecule also came in with a koff with human TIGIT-mFc [7] of 0.000144 s⁻¹. Also, the kon with human TIGIT-mFc [7] was found to be 4.56e+06 M⁻¹ s⁻¹.
